Data taken from PMC9482650, “Quantitative fragmentomics allow affinity mapping of interactomes” (Nature Communications, 2022).

T1: TJP3_3, O95049
T1 sequence (O95049 375-456, limits assumed, looked up): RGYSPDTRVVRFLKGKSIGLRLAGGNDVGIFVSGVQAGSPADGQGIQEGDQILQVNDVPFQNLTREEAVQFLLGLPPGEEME

T2: APBA1_2, Q02410
T2 sequence (Q02410 742-832, limits assumed, looked up): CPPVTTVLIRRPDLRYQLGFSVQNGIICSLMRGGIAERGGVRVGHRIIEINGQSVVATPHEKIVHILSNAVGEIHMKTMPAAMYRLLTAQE

T3: CARD11, Q9BXL7
T3 sequence (Q9BXL7 662-765, limits assumed, looked up): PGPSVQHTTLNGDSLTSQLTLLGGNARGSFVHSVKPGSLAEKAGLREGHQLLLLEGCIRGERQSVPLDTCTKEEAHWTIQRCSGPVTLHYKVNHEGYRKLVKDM

T4: DFNB31_3, Q9P202
T4 sequence (Q9P202 811-907, limits assumed, looked up): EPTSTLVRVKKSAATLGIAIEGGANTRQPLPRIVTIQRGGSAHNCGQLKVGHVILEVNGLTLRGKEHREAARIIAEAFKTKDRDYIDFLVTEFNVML

T5: GRIP1_5, Q9Y3R0
T5 sequence (Q9Y3R0 568-668, limits assumed, looked up): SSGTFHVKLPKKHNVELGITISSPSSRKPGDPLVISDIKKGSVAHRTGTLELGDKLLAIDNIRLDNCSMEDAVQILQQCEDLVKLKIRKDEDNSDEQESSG

T6: MPP7, Q5T2T1
T6 sequence (Q5T2T1 134-230, limits assumed, looked up): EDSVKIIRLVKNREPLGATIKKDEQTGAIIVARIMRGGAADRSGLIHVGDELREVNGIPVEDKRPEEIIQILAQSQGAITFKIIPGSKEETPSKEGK

T7: LIN7C, Q9NUP9
T7 sequence (Q9NUP9 88-185, limits assumed, looked up): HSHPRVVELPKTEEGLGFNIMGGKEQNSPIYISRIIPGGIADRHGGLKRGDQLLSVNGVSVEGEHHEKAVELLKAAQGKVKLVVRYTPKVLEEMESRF

T8: GRIP1_2, Q9Y3R0
T8 sequence (Q9Y3R0 145-248, limits assumed, looked up): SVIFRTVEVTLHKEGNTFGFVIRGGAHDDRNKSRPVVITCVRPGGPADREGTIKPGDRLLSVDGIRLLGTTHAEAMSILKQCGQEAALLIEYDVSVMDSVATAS

T9: SYNJ2BP, P57105
T9 sequence (P57105 8-110, limits assumed, looked up): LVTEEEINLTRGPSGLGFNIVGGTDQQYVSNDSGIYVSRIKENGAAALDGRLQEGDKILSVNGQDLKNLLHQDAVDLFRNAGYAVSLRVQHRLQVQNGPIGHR

T10: GRIP1_3, Q9Y3R0
T10 sequence (Q9Y3R0 247-346, limits assumed, looked up): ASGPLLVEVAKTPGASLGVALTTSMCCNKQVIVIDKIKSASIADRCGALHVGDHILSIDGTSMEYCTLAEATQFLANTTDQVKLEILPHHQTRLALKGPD

B1: GOT1L1, Q8NHS2 (peptide)
chain: EKKTLIGIKL
B2: ACOT8, O14734 (peptide)
chain: VKPQVSESKL

target: DLG4_3, P78352; test: holdup assay; design: key: below the threshold = too weak to quantify, mostly under pKd 3.1 to 4; settings: plain residues with an end cap or a label only (N-terminal biotin on a linker: ado-ado)
Sequence (P78352 306-403): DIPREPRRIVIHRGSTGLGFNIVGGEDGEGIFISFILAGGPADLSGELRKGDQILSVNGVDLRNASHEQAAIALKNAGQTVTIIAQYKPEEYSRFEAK

Row | Binder | pKd
1 | B1 | below the threshold
2 | B2 | below the threshold

target: T1, TJP3_3, O95049; test: holdup assay; design: key: below the threshold = too weak to quantify, mostly under pKd 3.1 to 4; settings: plain residues with an end cap or a label only (N-terminal biotin on a linker: ado-ado)

Row | Binder | pKd
3 | B1 | below the threshold
4 | B2 | below the threshold

target: T2, APBA1_2, Q02410; test: holdup assay; design: key: below the threshold = too weak to quantify, mostly under pKd 3.1 to 4; settings: plain residues with an end cap or a label only (N-terminal biotin on a linker: ado-ado)

Row | Binder | pKd
5 | B1 | below the threshold
6 | B2 | below the threshold

target: FRMPD3, Q5JV73; test: holdup assay; design: key: below the threshold = too weak to quantify, mostly under pKd 3.1 to 4; settings: plain residues with an end cap or a label only (N-terminal biotin on a linker: ado-ado)
Sequence (Q5JV73 12-100): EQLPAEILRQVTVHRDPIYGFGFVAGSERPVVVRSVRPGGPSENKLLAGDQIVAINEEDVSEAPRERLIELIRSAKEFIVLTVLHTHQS

Row | Binder | pKd
7 | B1 | below the threshold
8 | B2 | below the threshold

target: GRIP2_7, Q9C0E4; test: holdup assay; design: key: below the threshold = too weak to quantify, mostly under pKd 3.1 to 4; settings: plain residues with an end cap or a label only (N-terminal biotin on a linker: ado-ado)
Sequence (Q9C0E4 934-1023): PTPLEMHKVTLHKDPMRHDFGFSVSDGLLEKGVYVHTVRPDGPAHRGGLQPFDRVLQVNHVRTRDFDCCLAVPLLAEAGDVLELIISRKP

Row | Binder | pKd
9 | B1 | below the threshold
10 | B2 | below the threshold

target: GORASP2, Q9H8Y8; test: holdup assay; design: key: below the threshold = too weak to quantify, mostly under pKd 3.1 to 4; settings: plain residues with an end cap or a label only (N-terminal biotin on a linker: ado-ado)

Row | Binder | pKd
11 | B1 | below the threshold
12 | B2 | below the threshold

target: SNX27, Q96L92; test: holdup assay; design: key: below the threshold = too weak to quantify, mostly under pKd 3.1 to 4; settings: plain residues with an end cap or a label only (N-terminal biotin on a linker: ado-ado)

Row | Binder | pKd
13 | B1 | below the threshold
14 | B2 | 5.34

target: T3, CARD11, Q9BXL7; test: holdup assay; design: key: below the threshold = too weak to quantify, mostly under pKd 3.1 to 4; settings: plain residues with an end cap or a label only (N-terminal biotin on a linker: ado-ado)

Row | Binder | pKd
15 | B1 | below the threshold
16 | B2 | below the threshold

target: T4, DFNB31_3, Q9P202; test: holdup assay; design: key: below the threshold = too weak to quantify, mostly under pKd 3.1 to 4; settings: plain residues with an end cap or a label only (N-terminal biotin on a linker: ado-ado)

Row | Binder | pKd
17 | B1 | 4.02
18 | B2 | 3.71

target: DLG1_3, Q12959; test: holdup assay; design: key: below the threshold = too weak to quantify, mostly under pKd 3.1 to 4; settings: plain residues with an end cap or a label only (N-terminal biotin on a linker: ado-ado)
Sequence (Q12959 457-571): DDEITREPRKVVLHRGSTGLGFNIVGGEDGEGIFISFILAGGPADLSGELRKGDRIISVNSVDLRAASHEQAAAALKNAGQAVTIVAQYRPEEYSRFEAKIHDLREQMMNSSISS

Row | Binder | pKd
19 | B1 | below the threshold
20 | B2 | below the threshold

target: MAGI2_4, Q86UL8; test: holdup assay; design: key: below the threshold = too weak to quantify, mostly under pKd 3.1 to 4; settings: plain residues with an end cap or a label only (N-terminal biotin on a linker: ado-ado)
Sequence (Q86UL8 772-865): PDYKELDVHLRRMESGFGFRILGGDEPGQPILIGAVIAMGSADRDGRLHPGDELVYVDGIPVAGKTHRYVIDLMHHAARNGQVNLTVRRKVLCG

Row | Binder | pKd
21 | B1 | below the threshold
22 | B2 | below the threshold

target: SCRIB_1, Q14160; test: holdup assay; design: key: below the threshold = too weak to quantify, mostly under pKd 3.1 to 4; settings: plain residues with an end cap or a label only (N-terminal biotin on a linker: ado-ado)
Sequence (Q14160 718-814): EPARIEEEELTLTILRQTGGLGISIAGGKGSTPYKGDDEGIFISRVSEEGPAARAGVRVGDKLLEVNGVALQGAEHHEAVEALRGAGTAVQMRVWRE

Row | Binder | pKd
23 | B1 | below the threshold
24 | B2 | 4.32

target: TJP2_1, Q9UDY2; test: holdup assay; design: key: below the threshold = too weak to quantify, mostly under pKd 3.1 to 4; settings: plain residues with an end cap or a label only (N-terminal biotin on a linker: ado-ado)
Sequence (Q9UDY2 24-128): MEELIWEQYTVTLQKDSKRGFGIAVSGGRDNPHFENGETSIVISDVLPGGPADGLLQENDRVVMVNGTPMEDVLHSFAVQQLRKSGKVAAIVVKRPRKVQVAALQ

Row | Binder | pKd
25 | B1 | below the threshold
26 | B2 | below the threshold

target: T5, GRIP1_5, Q9Y3R0; test: holdup assay; design: key: below the threshold = too weak to quantify, mostly under pKd 3.1 to 4; settings: plain residues with an end cap or a label only (N-terminal biotin on a linker: ado-ado)

Row | Binder | pKd
27 | B1 | below the threshold
28 | B2 | below the threshold

target: T6, MPP7, Q5T2T1; test: holdup assay; design: key: below the threshold = too weak to quantify, mostly under pKd 3.1 to 4; settings: plain residues with an end cap or a label only (N-terminal biotin on a linker: ado-ado)

Row | Binder | pKd
29 | B1 | below the threshold
30 | B2 | below the threshold

target: PDZRN4_1, Q6ZMN7; test: holdup assay; design: key: below the threshold = too weak to quantify, mostly under pKd 3.1 to 4; settings: plain residues with an end cap or a label only (N-terminal biotin on a linker: ado-ado)
Sequence (Q6ZMN7 213-318): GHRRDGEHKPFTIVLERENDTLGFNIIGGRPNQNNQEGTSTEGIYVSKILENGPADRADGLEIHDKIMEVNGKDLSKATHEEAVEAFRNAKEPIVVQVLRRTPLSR

Row | Binder | pKd
31 | B1 | below the threshold
32 | B2 | 3.83

target: SCRIB_2, Q14160; test: holdup assay; design: key: below the threshold = too weak to quantify, mostly under pKd 3.1 to 4; settings: plain residues with an end cap or a label only (N-terminal biotin on a linker: ado-ado)
Sequence (Q14160 857-960): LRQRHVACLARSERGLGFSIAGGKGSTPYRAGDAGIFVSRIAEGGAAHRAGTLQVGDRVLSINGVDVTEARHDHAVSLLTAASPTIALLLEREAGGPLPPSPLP

Row | Binder | pKd
33 | B1 | below the threshold
34 | B2 | 3.52

target: LAP2, Q96RT1; test: holdup assay; design: key: below the threshold = too weak to quantify, mostly under pKd 3.1 to 4; settings: plain residues with an end cap or a label only (N-terminal biotin on a linker: ado-ado)
Sequence (Q96RT1 other isoform, or with tags, fused parts or gaps): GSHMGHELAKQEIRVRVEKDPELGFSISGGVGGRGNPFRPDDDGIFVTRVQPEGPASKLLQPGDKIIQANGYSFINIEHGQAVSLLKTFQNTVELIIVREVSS

Row | Binder | pKd
35 | B1 | below the threshold
36 | B2 | below the threshold

target: AHNAK1, Q09666; test: holdup assay; design: key: below the threshold = too weak to quantify, mostly under pKd 3.1 to 4; settings: plain residues with an end cap or a label only (N-terminal biotin on a linker: ado-ado)
Sequence (Q09666 4-100): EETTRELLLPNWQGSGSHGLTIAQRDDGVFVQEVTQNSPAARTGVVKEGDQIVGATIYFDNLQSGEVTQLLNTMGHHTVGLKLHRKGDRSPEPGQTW

Row | Binder | pKd
37 | B1 | below the threshold
38 | B2 | below the threshold

target: T7, LIN7C, Q9NUP9; test: holdup assay; design: key: below the threshold = too weak to quantify, mostly under pKd 3.1 to 4; settings: plain residues with an end cap or a label only (N-terminal biotin on a linker: ado-ado)

Row | Binder | pKd
39 | B1 | below the threshold
40 | B2 | below the threshold

target: T8, GRIP1_2, Q9Y3R0; test: holdup assay; design: key: below the threshold = too weak to quantify, mostly under pKd 3.1 to 4; settings: plain residues with an end cap or a label only (N-terminal biotin on a linker: ado-ado)

Row | Binder | pKd
41 | B1 | below the threshold
42 | B2 | below the threshold

target: HTRA2, O43464; test: holdup assay; design: key: below the threshold = too weak to quantify, mostly under pKd 3.1 to 4; settings: plain residues with an end cap or a label only (N-terminal biotin on a linker: ado-ado)
Sequence (O43464 355-458): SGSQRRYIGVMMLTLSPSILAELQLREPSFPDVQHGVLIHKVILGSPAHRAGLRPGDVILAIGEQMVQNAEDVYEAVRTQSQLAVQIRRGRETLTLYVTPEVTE

Row | Binder | pKd
43 | B1 | below the threshold
44 | B2 | below the threshold

target: T9, SYNJ2BP, P57105; test: holdup assay; design: key: below the threshold = too weak to quantify, mostly under pKd 3.1 to 4; settings: plain residues with an end cap or a label only (N-terminal biotin on a linker: ado-ado)

Row | Binder | pKd
45 | B1 | below the threshold
46 | B2 | 3.75

target: GRID2IP_1, A4D2P6; test: holdup assay; design: key: below the threshold = too weak to quantify, mostly under pKd 3.1 to 4; settings: plain residues with an end cap or a label only (N-terminal biotin on a linker: ado-ado)
Sequence (A4D2P6 1-87): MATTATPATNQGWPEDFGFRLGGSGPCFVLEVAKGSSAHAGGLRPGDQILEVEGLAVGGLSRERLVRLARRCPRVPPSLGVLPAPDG

Row | Binder | pKd
47 | B1 | below the threshold
48 | B2 | below the threshold

target: MAGI2_2, Q86UL8; test: holdup assay; design: key: below the threshold = too weak to quantify, mostly under pKd 3.1 to 4; settings: plain residues with an end cap or a label only (N-terminal biotin on a linker: ado-ado)
Sequence (Q86UL8 410-522): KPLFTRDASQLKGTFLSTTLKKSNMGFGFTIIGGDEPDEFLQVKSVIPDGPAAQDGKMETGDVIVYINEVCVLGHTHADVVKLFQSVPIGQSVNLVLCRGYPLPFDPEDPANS

Row | Binder | pKd
49 | B1 | 3.52
50 | B2 | 3.64

target: T10, GRIP1_3, Q9Y3R0; test: holdup assay; design: key: below the threshold = too weak to quantify, mostly under pKd 3.1 to 4; settings: plain residues with an end cap or a label only (N-terminal biotin on a linker: ado-ado)

Row | Binder | pKd
51 | B1 | below the threshold
52 | B2 | below the threshold

target: GRIP2_3, Q9C0E4; test: holdup assay; design: key: below the threshold = too weak to quantify, mostly under pKd 3.1 to 4; settings: plain residues with an end cap or a label only (N-terminal biotin on a linker: ado-ado)
Sequence (Q9C0E4 238-339): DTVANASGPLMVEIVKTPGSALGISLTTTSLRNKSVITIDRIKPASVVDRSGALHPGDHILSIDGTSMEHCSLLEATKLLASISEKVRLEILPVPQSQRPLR

Row | Binder | pKd
53 | B1 | below the threshold
54 | B2 | below the threshold
